Entries after “also recorded” stand apart in the source; their conditions may differ.
Experiments:
db/db mice [1] = assay: Single s.c. injection dose study of GLP1-ELP-FGF21 (ambient blood glucose, body weight); assay type: in vivo
Protocol: (§1) Animals: In vivo studies were conducted in accordance with the AAALAC-accredited Duke Institutional Animal Care and Use Committee. 5-week-old B6.BKS(D)-Lepr^db/J (“db/db”) male mice were purchased from Jackson Laboratory (Bar Harbor, Me.) and maintained on a 12 h/12 h light/dark cycle with ad libitum access to food (LabDiet 5053) and water. Animals were group-housed and allowed 1-week acclimation before stratification into control and treatment groups based on baseline ambient blood glucose levels and body weights.
(§2) ELP fusion treatments: ELP fusion proteins were administered at 150-200 μM concentration via injection into the subcutaneous (s.c.) space on the hind flank. Animals received either a single s.c. injection for short-term studies or weekly s.c. injections for chronic studies. The “1:1 mixture” treatment group received a single injection containing an equimolar mixture of GLP1-ELP and ELP-FGF21, with the indicated dose referring to the dose of each respective fusion in the mixture. Vehicle control refers to PBS.
Ambient blood glucose measurements: Blood glucose levels were measured from a tail vein puncture with an AlphaTRAK 2 Blood Glucose Meter (Zoetis, Parsippany-Troy Hills, N.J.) every 24 h, 1-2 h following onset of the light cycle. Data are presented as either raw values, or as a magnitude change from a mean baseline established from three independent measurements collected prior to treatment. Areas under the curve (AUCs) were calculated with GraphPad Prism 8 software using the trapezoidal rule and setting a Y=0 baseline. Treatment group AUCs were normalized to the vehicle-treated group where indicated.

[2] = LCST phase behavior characterization (turbidity OD350 vs temperature); assay type: physicochemical
Protocol: Phase behavior characterization: The lower critical solution temperature (LCST) phase transition behavior of ELP fusion proteins was evaluated by monitoring the OD350 of solutions in PBS as a function of temperature on a Cary 300 UV-visible spectrophotometer equipped with a multicell thermoelectric temperature controller (Agilent Technologies, Santa Clara, Calif.). Heating and cooling were set to a rate of 1° C./min. The Tt was defined as the temperature at which the optical density reached 50% of its maximal value.

db/db mice [3] = assay: Chronic dosing study, weekly s.c. for four weeks (GTT, % HbA1c, body weight, food intake); assay type: in vivo; conditions: for GTT AUC: i.p. glucose tolerance test 3 days after the first dosing cycle; for fasting plasma insulin: prior to glucose challenge; for change in % HbA1c from days 0 to 27: weekly 1000 nmol/kg s.c. for four weeks; for weight gain on chronic treatment: weekly 1000 nmol/kg s.c.
Protocol: as §1, §2
Food Intake: For food intake studies, animals were group-housed 4 per cage, and food pellets were weighed every 1-2 days. Total cage food intake was calculated for each time increment, averaged per animal, and summed over the course of the study to yield a cumulative food intake per mouse. N=8 treatment groups were divided into 2 cages, allowing for an n=2 food intake standard error calculation.

[4] = Pharmacokinetic study of radiolabeled ELP fusion depots after s.c. injection; assay type: in vivo, mice; conditions: for Cmax / TMAX / AUC / T1/2, ABS (absorption half-life): db/db mice, 1000 nmol/kg; for Cmax / TMAX / AUC / T1/2, ABS (absorption half-life) / steady plasma drug levels: single s.c. injection; for Cmax / TMAX: radiolabeled construct; for AUC: extrapolated to 16 days post-administration; for T1/2, ABS (absorption half-life): from slope of terminal linear regression; for R-squared, first-order model / R-squared, zero-order model / Regression model, first-order elimination (Log(y)): fit to terminal portion of plasma concentration vs time data; for steady plasma drug levels: out to day 10 / for at least 10 days
Protocol: Pharmacokinetic studies: Tyrosine residues on GLP1-ELP, ELP-FGF21, or GLP1-ELP-FGF21 fusion proteins were reacted with Na^125I radionuclide (Perkin Elmer) using Pierce Pre-Coated Iodination Tubes (Thermo Fisher Scientific) and the indirect method for iodination. Radiolabeled protein was purified from unreacted radionuclide with Zeba Spin Desalting Columns (Thermo Fisher Scientific). Activities of radiolabeled constructs were measured with an Atomlab 400 Dose Calibrator (Biodex, Shirley, N.Y.) and correlated to protein concentration. Mice received a single s.c. injection of radiolabeled fusion, and 10 μL blood samples were collected at frequent time points from the tail vein and stored at room temperature until radioactivity quantification. Sample counts were measured at the end of the study on a Wallac Wizard 1480 Automatic Gamma Counter (Perkin Elmer). An activity vs. count standard curve was used to convert sample counts to activities, and subsequently to moles of drug.
Pharmacokinetic analysis: The maximum serum concentration (Cmax) was recorded as observed, as well as time to reach Cmax (tmax). […] Absorption half-life (t1/2, abs) was estimated from the slope of the linear regression curve. When a drug administered at an extravascular site yields a terminal half-life greater than that resulting from an i.v. bolus, the terminal half-life reflects the absorption half-life.

db/db mice [5] = assay: Hypoglycemia safety check (16 h extended fast, glucose-stimulated insulin in GTT)
Protocol: Glucose tolerance test: Animals were fasted at the onset of the light cycle for 5 h with ad libitum access to water, then injected via intraperitoneal (i.p.) with 0.75 g/kg D-glucose. Blood glucose levels were measured from a tail snip with a Contour Blood Glucose Meter (Bayer, Leverkusen, Germany) at t=0 (before glucose injection), 10, 20, 30, 60, 90, and 120 min.
Extended fast blood glucose measurements: Animals were fasted for 16 h starting at 4:00 PM with ad libitum access to water, after which blood glucose levels were measured from the tail vein as described for ambient blood glucose measurements.
Blood parameters: 50 μL blood samples were collected from the tail veins following a 6 h fast using Microvette EDTA coated tubes (Sarstedt), which were placed on ice until centrifugation at 5000 rcf at 4° C. for 15 min. Plasma supernatants were stored at −80° C. until time of assay. Plasma insulin levels were quantified using the Mercodia Mouse Insulin ELISA, according to the manufacturers' instructions.

db/db mice [6] = assay: GLP1-ELP control, single s.c. injection, glycemia and body weight for 10 days; assay type: in vivo; conditions: 1000 nmol/kg single s.c.
Protocol: as §1, §2
(§3) Ambient blood glucose measurements: Blood glucose levels were measured from a tail vein puncture with an AlphaTRAK 2 Blood Glucose Meter (Zoetis, Parsippany-Troy Hills, N.J.) every 24 h, 1-2 h following onset of the light cycle. […] Areas under the curve (AUCs) were calculated with GraphPad Prism 8 software using the trapezoidal rule and setting a Y=0 baseline. […]

db/db mice [7] = assay: Short-term co-treatment pilot study, 48 h after single s.c. injection; assay type: in vivo; conditions: 48 h post-injection, 1000 nmol/kg s.c.
Protocol: as §1, §2, §3

GLP-1R = target: T1, GLP-1R (Homo sapiens, UniProt P43220); assay: cAMP production assay (GLP-1R agonism, HEK293 cells with cAMP-inducible luciferase reporter); assay type: cell-based; conditions: fusion of GLP1 to ELP or ELP-FGF21
T1 construct: expressed in transfected cells; host or cells: HEK293
T1 sequence (P43220 24-463, species assumed): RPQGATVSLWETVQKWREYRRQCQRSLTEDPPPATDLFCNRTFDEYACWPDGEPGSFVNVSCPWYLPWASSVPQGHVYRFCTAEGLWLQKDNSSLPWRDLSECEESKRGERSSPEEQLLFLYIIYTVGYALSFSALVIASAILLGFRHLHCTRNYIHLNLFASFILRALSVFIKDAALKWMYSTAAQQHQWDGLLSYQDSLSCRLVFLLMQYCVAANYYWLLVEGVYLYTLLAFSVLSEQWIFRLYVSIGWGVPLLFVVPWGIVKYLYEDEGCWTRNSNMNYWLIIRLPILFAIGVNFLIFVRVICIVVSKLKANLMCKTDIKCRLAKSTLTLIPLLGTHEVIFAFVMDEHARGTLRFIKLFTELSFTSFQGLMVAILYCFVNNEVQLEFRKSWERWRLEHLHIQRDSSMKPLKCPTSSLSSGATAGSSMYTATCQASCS
Protocol: This time, however, the intended cleavage substrate was a GA leader instead of the AA leader. […] Data were fit to a three-parameter dose-response curve to determine EC50s.
Cells were seeded at 1×10^5 cells/cm^2 into 96 well plates and adhered overnight. […] Luminescence of the supernatant samples were measured on a Victor X3 Plate Reader (Perkin Elmer) and normalized to zero drug treatment control wells. Data were fit to a three-parameter dose-response curve to determine EC50s using GraphPad Prism 8 software.

[8] = 5 h fast, 3 days after the first dosing cycle, 1000 nmol/kg s.c.
[9] = 3 days after the first dosing cycle

B1: GLP1-ELP-FGF21: Fusion of GLP-1 analog, ELP (120 VPGXaaG repeats, 4:1 Val:Ala) and mutated murine FGF21; SEQ ID NO:15 (protein)
chain: AAHGEGTFTSDVSSYLEEQAAKEFIAWLVKGAGVGVPGVGVPGAGVPGVGVPGVGVPGVGVPGVGVPGAGVPGVGVPGVGVPGVGVPGVGVPGAGVPGVGVPGVGVPGVGVPGVGVPGAGVPGVGVPGVGVPGVGVPGVGVPGAGVPGVGVPGVGVPGVGVPGVGVPGAGVPGVGVPGVGVPGVGVPGVGVPGAGVPGVGVPGVGVPGVGVPGVGVPGAGVPGVGVPGVGVPGVGVPGVGVPGAGVPGVGVPGVGVPGVGVPGVGVPGAGVPGVGVPGVGVPGVGVPGVGVPGAGVPGVGVPGVGVPGVGVPGVGVPGAGVPGVGVPGVGVPGVGVPGVGVPGAGVPGVGVPGVGVPGVGVPGVGVPGAGVPGVGVPGVGVPGVGVPGVGVPGAGVPGVGVPGVGVPGVGVPGVGVPGAGVPGVGVPGVGVPGVGVPGVGVPGAGVPGVGVPGVGVPGVGVPGVGVPGAGVPGVGVPGVGVPGVGVPGVGVPGAGVPGVGVPGVGVPGVGVPGVGVPGAGVPGVGVPGVGVPGVGVPGVGVPGAGVPGVGVPGVGVPGVGVPGVGVPGAGVPGVGVPGVGVPGVGVPGVGVPGAGVPGVGVPGVGVPGVGVPGVGVPGAGVPGVGVPGVGVPGAYPIPDSSPLLQFGGQVRQRYLYTDDDQDTEAHLEIREDGTVVGAAHRSPESLLELKALKPGVIQILGVKASRFLCQQPDGALYGSPHFDPEACSFRERLLEDGYNVYQSEAHGLPLRLPQKDSPNQDATSWGPVRFLPMPGLLHEPQDQAGFLPPEPPDVGSSDPLSMVEGSQGRSPSYASG
- body weight % change on day 7 post-treatment (db/db mice [1]; 750 nmol/kg): −2.6±3.3%
- blood glucose vs. time AUC (db/db mice [1]; 750 nmol/kg and 1000 nmol/kg, single s.c. injection, vs vehicle): Significant reductions
- body weight % change on day 7 post-treatment (db/db mice [1]; 1000 nmol/kg): −2.7±3.7%
- ambient blood glucose levels after treatment (db/db mice [1]; all doses, reduced from >300 mg/dL): < 150 mg/dL
- persistence of blood glucose effects (db/db mice [1]; highest dose tested, 1000 nmol/kg): 8 days
- persistence of blood glucose effects (db/db mice [1]; lowest dose, 250 nmol/kg): 4 days
- duration of therapeutic drug levels and protection from hyperglycemia and weight gain (db/db mice [1]; single injection): > 7 days
- reduction of body weights (maximum) (db/db mice [1]; two highest doses tested (750 and 1000 nmol/kg)): up to 7.2±2.3%
- reversibility of phase change behavior ([2]; temperature ramped up to 37° C., then down to 20° C.): reversible
- fasting blood glucose levels (db/db mice [3]; [8]): 125 ± 6.0 mg/dL
- fasting blood glucose levels (db/db mice [3]; GTT 3 days following the final treatment): 92.7 ± 8.3 mg/dL
- food intake (db/db mice [3]; four-week treatment period): consuming chow at an equivalent rate to GLP1-ELP
- GTT AUC (db/db mice [3]): significantly decreased GTT AUC compared to GLP1-ELP or ELP-FGF21
- fasting plasma insulin (db/db mice [3]; [9]): without a significant elevation in insulin
- change in % HbA1c from days 0 to 27 (db/db mice [3]): +0.3±0.2%
- weight gain on chronic treatment (db/db mice [3]; four-week treatment period): 14.1±1.6%
- negative net weight gain values persisting through (db/db mice [3]; weekly dosing): 12 days
- Cmax [4]: 411 ± 51 nM
- TMAX [4]: 10.5 ± 1.5 H
- AUC [4]: 1961 ± 59 NM*D
- T1/2, ABS (absorption half-life) [4]: 7.6 ± 1.1 D
- R-squared, first-order model [4]: 0.85
- R-squared, zero-order model [4]: 0.81
- Regression model, first-order elimination (Log(y)) [4]: Log(y) = −0.0416x + 2.431
- absorption half-life ([4]; linear regression fit to terminal portion of the data, 1000 nmol/kg s.c.): 7.6 ± 1.1 days
- steady plasma drug levels [4]: ~100 nM
- blood glucose levels after overnight 16 h fast (db/db mice [5]; 1000 nmol/kg s.c., fast begun 48 h post-treatment, threshold of hypoglycemia): 50 to 55 mg/dL
- ad libitum-fed blood glucose levels (db/db mice [5]; 48 h post-treatment, 1000 nmol/kg s.c., vs vehicle): significant reductions
- blood glucose levels during recovery (return to pre-injection baselines) (db/db mice [5]; t=60 to t=120 min post-challenge in GTT): -100 mg/dL

B2: GLP1-ELP: Single agonist control: GLP-1 analog fused to ELP of 120 VPGXaaG repeats, 4:1 Val:Ala; SEQ ID NO:16 (protein)
chain: AAHGEGTFTSDVSSYLEEQAAKEFIAWLVKGAGVGVPGVGVPGAGVPGVGVPGVGVPGVGVPGVGVPGAGVPGVGVPGVGVPGVGVPGVGVPGAGVPGVGVPGVGVPGVGVPGVGVPGAGVPGVGVPGVGVPGVGVPGVGVPGAGVPGVGVPGVGVPGVGVPGVGVPGAGVPGVGVPGVGVPGVGVPGVGVPGAGVPGVGVPGVGVPGVGVPGVGVPGAGVPGVGVPGVGVPGVGVPGVGVPGAGVPGVGVPGVGVPGVGVPGVGVPGAGVPGVGVPGVGVPGVGVPGVGVPGAGVPGVGVPGVGVPGVGVPGVGVPGAGVPGVGVPGVGVPGVGVPGVGVPGAGVPGVGVPGVGVPGVGVPGVGVPGAGVPGVGVPGVGVPGVGVPGVGVPGAGVPGVGVPGVGVPGVGVPGVGVPGAGVPGVGVPGVGVPGVGVPGVGVPGAGVPGVGVPGVGVPGVGVPGVGVPGAGVPGVGVPGVGVPGVGVPGVGVPGAGVPGVGVPGVGVPGVGVPGVGVPGAGVPGVGVPGVGVPGVGVPGVGVPGAGVPGVGVPGVGVPGVGVPGVGVPGAGVPGVGVPGVGVPGVGVPGVGVPGAGVPGVGVPGVGVPGVGVPGVGVPGAGVPGVGVPGVGVPG
- weight gain compared to control mice (db/db mice [6]; daily for 10 days): significantly inhibited weight gain
- ambient blood glucose levels after treatment (db/db mice [6]; reduced from >300 mg/dL for the duration of the 10 day study): < 200 mg/dL
- Tt (transition temperature) ([2]; PBS, injection-relevant concentration of 200 μM): 27.5 °C
- body weight, % change from pre-injection weight (db/db mice [7]): −0.2±0.6%
- fasting blood glucose levels (db/db mice [3]; [8]): 167 ± 11 mg/dL
- % HbA1c elevation relative to control (db/db mice [3]; four-week study): significantly reduced % HbA1c elevation relative to control
- effect on body weight / weight gain compared to vehicle (db/db mice [3]; four-week treatment period): significantly inhibited weight gain
- food intake (db/db mice [3]; four-week treatment period): significant reduction in food intake
- GTT AUC (db/db mice [3]): outperformed ELP-FGF21 in improving glucose tolerance
- fasting plasma insulin (db/db mice [3]; [9]): significant increase in fasting plasma insulin
- change in % HbA1c from days 0 to 27 (db/db mice [3]): +1.0±0.2%
- weight gain on chronic treatment (db/db mice [3]; four-week treatment period): 25.3±1.9%
- increase in GLP-1R EC50 compared to native GLP-1 (GLP-1R): approximately ten-fold; also recorded: ten-fold increase
- plasma levels of component of 1:1 mixed depot ([4]; 1:1 mixture, 1000 nmol/kg each, steady for 7 days): around 100 nM
- Cmax [4]: 369 ± 14 nM
- TMAX [4]: 4.8 ± 0.7 H
- AUC [4]: 2023 ± 67 NM*D
- T1/2, ABS (absorption half-life) [4]: 20.8 ± 3.2 D
- R-squared, first-order model [4]: 0.61
- R-squared, zero-order model [4]: 0.58
- Regression model, first-order elimination (Log(y)) [4]: Log(y) = −0.01628x + 2.263
- steady plasma drug levels [4]: around 100 nM

Source: patent US11649275B2, “Dual agonist fusion proteins” (Duke University, priority 2018, dated 2023)
